The target of this assay is T1, mouse vimentin (VIM from wild-type C57BL/6J mouse bone marrow lysates) (mouse, UniProt P20152 2-466).
T1 construct: Endogenous protein in bone marrow lysate, denatured for SDS/PAGE and Western blot
In words: Western blot of bone marrow lysate. The protocol: To identify the protein recognized by the B1 antibody, antibodies were produced recombinantly in Expi293F cells. Purified B1 antibody (at a concentration of about 5-10 μg/ml) was incubated with human CD34⁺ cells, and immune complexes from cellular lysates were captured on a protein A/G column. Proteins that reacted with the antibody were identified by silver staining of SDS gels and their identity determined by mass spectrometry (MS). Three candidate proteins were identified above the background threshold (FIG. 5A). Vimentin (VIM) was one of the top hits and was confirmed to be B1 target antigen of B1 Ab by Western blotting. […] Also, VIM expression was found in human CD34⁺ cells by immunofluorescence cytochemistry using B1 or commercial VIM antibodies (FIG. 5C). The amino acid sequence identity between mouse and human VIM is greater than 97%.
Western blot: Cells were washed with PBS and then lysed in lysis buffer (50 mM Hlepes, pH 7.2, 150 mM NaCl, 50 mM NaF, 1 mM Na3VO₄, 10% glycerol, 1% Triton X-100). The lysates were then centrifuged at 12,000×g for 15 min at 4° C. The proteins were denatured in Laemmli sample buffer (5 min at 95° C.), separated by SDS/PAGE, and transferred to nitrocellulose membranes using the iBlot blotting system (Invitrogen). […]

T1 sequence (P20152 2-466 limits assumed): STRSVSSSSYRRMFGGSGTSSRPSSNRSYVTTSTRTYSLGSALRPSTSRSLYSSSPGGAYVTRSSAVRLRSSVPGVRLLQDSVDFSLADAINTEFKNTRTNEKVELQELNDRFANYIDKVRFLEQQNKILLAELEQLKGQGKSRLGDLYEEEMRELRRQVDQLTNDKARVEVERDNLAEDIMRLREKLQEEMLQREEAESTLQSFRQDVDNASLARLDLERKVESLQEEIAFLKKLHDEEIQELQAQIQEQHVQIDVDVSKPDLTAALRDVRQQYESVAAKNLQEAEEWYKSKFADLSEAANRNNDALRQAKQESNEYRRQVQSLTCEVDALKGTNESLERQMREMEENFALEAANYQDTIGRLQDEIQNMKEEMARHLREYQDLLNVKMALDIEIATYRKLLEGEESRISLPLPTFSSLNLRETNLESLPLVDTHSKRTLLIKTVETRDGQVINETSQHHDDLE

B1: B1 antibody (Fc fusion)
scFv: MAQVQLLESGGGLVQPGGSLTLACAASGFNFNNYNMNWVRQAPGRGLEWVAFISSAADTVHYADSVEGRFTISRDNAKNSLYLHMNSLRDEDTAVYYCARQLLYWGQGTLVTVSSGGGGGSQAVLTQPSSLSASPGASVSLTCTLRSGINVGAYRIYWYQQKPGSPPQFLLRYKSDSDKQQGSGVPSRFSGSRDASANAGILLISWLRSEDEADYYCAIWHSSAWVFGGGTQLTVLG
notes: also called B1 Ab; B1Ab; not shown: Fc tag of the purified ScFv-Fc fusion protein
With B1, the binding result was “binds”.

Values taken from US20200140851A1 (Scripps Research, published 2020).
